The text below walks through data of publication doi:10.1101/2022.03.04.482944 (bioRxiv, 2022).

Common to all, as to experiment: Ligand Surface Binding Assay
Experiment [1] concerns the target ACVR2A-Halo (human, UniProt P27037 20-513).
Experiment [2] has as its target ACVR2B-Halo (human, UniProt Q13705 19-512).
Experiment [3] deals with T1, BMPR2-Halo (human, UniProt Q13873 27-1038).
T1 sequence (looked up): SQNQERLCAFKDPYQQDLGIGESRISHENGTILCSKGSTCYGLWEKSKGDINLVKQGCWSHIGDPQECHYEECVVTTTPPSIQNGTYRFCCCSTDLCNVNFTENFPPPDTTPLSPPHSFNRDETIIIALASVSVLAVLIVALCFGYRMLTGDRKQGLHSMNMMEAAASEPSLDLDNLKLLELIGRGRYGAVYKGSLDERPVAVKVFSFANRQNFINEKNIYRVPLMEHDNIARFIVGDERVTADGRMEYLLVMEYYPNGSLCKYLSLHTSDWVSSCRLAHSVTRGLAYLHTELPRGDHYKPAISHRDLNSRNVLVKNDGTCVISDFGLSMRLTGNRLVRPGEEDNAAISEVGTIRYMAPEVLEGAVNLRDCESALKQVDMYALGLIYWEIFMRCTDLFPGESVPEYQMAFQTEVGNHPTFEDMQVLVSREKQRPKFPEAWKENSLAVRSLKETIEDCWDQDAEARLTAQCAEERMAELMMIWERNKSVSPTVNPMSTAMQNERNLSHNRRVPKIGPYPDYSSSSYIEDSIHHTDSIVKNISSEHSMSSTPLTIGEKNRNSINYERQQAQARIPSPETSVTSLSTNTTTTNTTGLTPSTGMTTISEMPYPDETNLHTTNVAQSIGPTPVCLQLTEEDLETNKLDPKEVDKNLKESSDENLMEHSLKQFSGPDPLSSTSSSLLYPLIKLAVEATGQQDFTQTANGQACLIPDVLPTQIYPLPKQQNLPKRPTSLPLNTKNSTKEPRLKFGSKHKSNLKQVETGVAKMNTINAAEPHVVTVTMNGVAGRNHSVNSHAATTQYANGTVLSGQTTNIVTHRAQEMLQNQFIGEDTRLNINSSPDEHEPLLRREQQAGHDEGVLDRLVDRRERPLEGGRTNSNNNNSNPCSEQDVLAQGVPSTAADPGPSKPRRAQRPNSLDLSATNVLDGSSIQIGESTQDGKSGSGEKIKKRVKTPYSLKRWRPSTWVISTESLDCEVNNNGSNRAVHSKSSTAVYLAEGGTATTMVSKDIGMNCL

Sequence of ACVR2B-Halo (Q13705 19-512): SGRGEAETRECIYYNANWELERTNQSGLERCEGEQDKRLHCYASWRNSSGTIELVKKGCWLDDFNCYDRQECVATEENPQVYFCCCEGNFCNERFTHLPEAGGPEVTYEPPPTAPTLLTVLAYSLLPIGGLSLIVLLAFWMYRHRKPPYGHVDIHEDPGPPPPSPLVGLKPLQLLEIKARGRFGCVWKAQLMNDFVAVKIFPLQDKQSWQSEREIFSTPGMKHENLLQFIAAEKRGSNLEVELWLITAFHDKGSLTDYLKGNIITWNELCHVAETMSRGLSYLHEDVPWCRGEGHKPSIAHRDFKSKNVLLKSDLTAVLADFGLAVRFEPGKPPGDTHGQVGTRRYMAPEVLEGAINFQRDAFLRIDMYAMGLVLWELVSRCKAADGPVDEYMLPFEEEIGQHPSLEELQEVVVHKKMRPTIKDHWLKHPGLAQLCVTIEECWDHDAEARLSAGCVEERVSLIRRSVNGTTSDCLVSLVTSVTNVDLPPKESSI
Sequence of ACVR2A-Halo (P27037 20-513): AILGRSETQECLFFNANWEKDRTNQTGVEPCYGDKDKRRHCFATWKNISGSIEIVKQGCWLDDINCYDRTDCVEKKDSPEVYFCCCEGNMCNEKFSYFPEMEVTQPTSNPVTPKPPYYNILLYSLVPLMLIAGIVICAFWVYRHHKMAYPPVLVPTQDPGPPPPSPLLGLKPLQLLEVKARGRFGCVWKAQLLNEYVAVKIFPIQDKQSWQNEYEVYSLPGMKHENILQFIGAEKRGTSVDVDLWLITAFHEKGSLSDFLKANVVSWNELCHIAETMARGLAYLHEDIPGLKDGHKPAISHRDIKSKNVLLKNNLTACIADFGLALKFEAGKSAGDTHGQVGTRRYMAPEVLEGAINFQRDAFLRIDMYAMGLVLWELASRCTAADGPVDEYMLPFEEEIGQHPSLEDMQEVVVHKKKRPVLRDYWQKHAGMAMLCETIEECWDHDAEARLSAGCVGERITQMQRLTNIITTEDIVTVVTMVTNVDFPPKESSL

B1: Activin A-Cy5 (ligand, UniProt P08476 311-426, looked up)
chain: GLECDGKVNICCKKQFFVSFKDIGWNDWIIAPSGYHANYCEGECPSHIAGTSGSSLSFHSTVINHYRMRGHSPFANLKSCCVPTKLRPMSMLYYDDGQNIIKKDIQNMIVEECGCS
modifications: Cy5 label (NHS-activated Cy5, protein:dye ratio 1:2 in the labelling reaction)
Take B1: the “fold Activin A-Cy5 binding relative to untransfected cells” value in experiment [1] is roughly 29 fold; in experiment [2], roughly 84 fold; in experiment [3] it was roughly 27 fold.
